Data on one molecule can be found in publication PMC8915372.

For the test, the target named is HLA-A*03:01 (HLA class I molecule of HLA-A3+ NBS fibroblasts) (human | human (endogenous in NBS fibroblasts)). Briefly: affinity purification with mass spectrometry.

In turn, ATFYVRTTINK [A3-RPL28^74-84(p76S>F) 11-mer peptide] had an amount of peptide detected by PRM in the HLA class I eluate (fmol/million cells) of 3.67.
